Where two headings read alike, the source gives them in different places. Non-standard residues stand in square brackets, D forms with d. Residues, ends and D or L forms follow the SMILES beside them. *: point of attachment. Dolaproine = CO[C@@H]([C@@H]1CCCN1)[C@@H](C)C(=O)O; Dil = CC[C@H](C)[C@H](NC)[C@@H](CC(=O)O)OC; X1 = C[C@@H](N*)[C@@H](O)c1ccccc1; NMeV = CN[C@H](C(=O)O)C(C)C
Experiments:
CHLA06 cells [1] = assay: Dose response / cell viability in CHLA06 cells; type: cell-based
Procedure: (§1) Biological activity of the peptides was determined using various assays. To determine proliferative activity, cells were plated at 5×10^3 cells per well in a 96-well microtiter plate. Samples and controls were added and the plates incubated for 24, 48 and 72 hours at 37° C. Viability was determined by adding WST-1 and reading at […] over 1-4 hours. Alternatively, viability was determined using a kit such as the EZViable calcein AM cell viability assay (BioVision) or the Live/Dead Cell imaging kit (ThermoFisher). Induction of cell events such as apoptosis was determined using reagents such as Cell Event Caspase 3/7 reagent (ThermoFisher).

A431 cells = assay: Dose response / cell viability in A431 cells; type: cell-based, human
Procedure: as §1
(§2) Cells were plated at 5000 cells/well in 100 ul D10 on day 0.100 ul of PDCs were added and titrated 1:1 in D10 (starting concentration=500 nM). WST-1 was added at 72 hours and the plates read over 5 hours at […] in a Promega GloMax.
A pocket biologic (peptide or antibody) having an internalization portion, a linker, and a localization signal was developed to deliver a drug or biological therapeutic into the cell. […] 429-MMAE-1 and 429-NLS-Panobinostat constructs were developed for in vivo studies. G292 cell lines and A431 cell lines were used in the in vivo studies. G292 cells were derived from a primary osteosarcoma of a person. […] A431 cells were established from an epidermoid carcinoma in the skin (epidermis) of a patient. Epidermal growth factor (EGF) stimulation of A431 cells induces rapid tyrosine phosphorylation of intracellular signaling proteins which control cellular processes such as growth, proliferation and apoptosis. […] 429-MMAE affected cell viability in G292 cell lines (FIG. 16A-FIG. 17). 429-MMAE at 50 nm, 125 nm, 250 nm, 500 nm concentrations and OV-MMAE conjugates at 50 nm, 125 nm, 250 nm, 500 nm concentrations were compared to DMSO and MMAE at 50 nm in G292 cells.

microtubules = assay: ViaFluor 647 live cell microtubule stain (FIG. 6); type: cell-based; conditions: ViaFluor 647 stain, 60 minutes at 37° C.
Procedure: Cells were stained with ViaFluor 647 live cell microtubule stain (Biotium). Cells were treated as in FIG. 3 and stain with ViaFluor for 60 minutes at 37° C.

[2] = test system: cancer cell lines of different lineages; assay: Internalization of OV-8 in cell lines; type: cell-based; conditions: FIG. 2
HCT116 cells = assay: Dose response / cell viability in HCT116 cells; type: cell-based, human; conditions: HCT116 Myc-reporter cells
Procedure: as §1, §2

CHLA06 cells [3] = assay: Caspase assay (apoptosis) in CHLA06 cells; type: cell-based; conditions: SMARCB1 conjugate and tazemetostat treatments
Procedure: as §1
429-MMAE was also compared with 429-SM in various cell lines. 429-SM represents 429-Smarc-MMAE and consists of 429-linker-NLS-SMARCB1 mimic to which 1 or 2 MMAE molecules are conjugated through the cysteines. CHLA06 cells were plated at 10,000 cells/well in B27-5 overnight. Samples were added and incubated for 48 hours at 37° C. Caspase 3/7 reagent was added and plates were read after 30 minutes at room temperature. […] Induction of apoptosis is directly correlated with drug concentration (i.e., higher the concentration of drug, the higher the apoptotic effect). […] 429-SM was also effective in A431 and HCT116 cells (FIG. 42C-42D).

Myc transcription = Myc transcription in HCT116 Myc-reporter cells; type: cell-based, human; conditions: for inhibition of Myc transcription: dose series
CHLA06 cells [4] = assay: Confocal microscopy of 429-SMARCB1 in CHLA06 cells; type: cell-based; conditions: confocal fluorescent microscopy
ATRT cell lines = assay: Apoptosis in ATRT cell lines, combination with tazemetostat; type: cell-based
CHLA02 cells = assay: Caspase activity / apoptosis in CHLA02 cells; type: cell-based; conditions: CHL02 cells; SMARCB1 Mimic (F) and tazemetostat treatments
Procedure: as §1

With `C[C@]1(O)C[C@@H](c2nc(-c3ccc4ccc(-c5ccccc5)nc4c3)c3c(N)nccn32)C1` [Linsitinib] as the molecule, how does the “effect on CHLA06 cells (dose response)” value (CHLA06 cells [1]; FIG. 38A) read?
Its value is “no effects”.

Which IC50 (A431 cells; A431 cells, MMAE at 1:3 dilutions, FIG. 20A, read-out: IC50 value (four-parameter non-linear regression)) does the source give for `CC[C@H](C)[C@@H]([C@@H](CC(=O)N1CCC[C@H]1[C@H](OC)[C@@H](C)C(=O)N[C@H](C)[C@@H](O)c1ccccc1)OC)N(C)C(=O)[C@@H](NC(=O)[C@@H](NC)C(C)C)C(C)C` [MMAE, monomethyl auristatin E, reference compound] (H-[NMeV]V[Dil][Dolaproine]-X1) here?
Its IC50 is 0.0712 nM.

And the disruption of microtubules (microtubules)?
Its disruption of microtubules is “disrupt microtubules”.

`Nc1ncnc2c1c(-c1cccc(OCc3ccccc3)c1)cn2C1CC(CN2CCCC2)C1` (centres unmarked) [NVP-ADW742] was tested. Which “effect on CHLA06 cells (dose response)” value (CHLA06 cells [1]; FIG. 38A) did it give?
Its value is “no effects”.

Which results are given for `COc1cc([C@@H]2c3cc4c(cc3[C@H](O)[C@H]3COC(=O)[C@@H]23)OCO4)cc(OC)c1OC` [PPP, Picropodophyllin]?
effect on CHLA06 cells (dose response) (CHLA06 cells [1]; FIG. 38A): active; effectiveness compared to 429-MMAE in terms of IC50 (CHLA06 cells [1]; FIG. 38A): less effective

With `Cc1[nH]c2ccccc2c1CCNCc1ccc(/C=C/C(=O)NO)cc1` [Panobinostat, reference compound] as the molecule, how does the IC50 (A431 cells; Homo sapiens, A-431, A431 cells, FIG. 20B, FIG. 24A, read-out: IC50 value) read?
Its IC50 is 108 nM.

And the IC50 (A431 cells; Homo sapiens, A-431, printed as A431 treated with Panobinostat, in the sentence on CHLA06 cells, FIG. 24B, read-out: IC50)?
The IC50 was > 500 nM.

How did the “internalization into cancer cell lines” value [2] turn out when FSFGNSSLRKLPGVVRRRRCARGVWR [Skwx-OV-8] was run?
Its value is “internalize”.

B1: 429-SMARCB1: 429 construct delivering SmarcB1-myc binding sequence to nucleus (peptide)
chain: DFYGCLLDLSLGVPSLGWRRRCITAWLPSSIPKKKRKVDGQKLRDAFTWNMNEKLMTPEMFSEILCDDLD
modifications: 429 conjugate
For B1, which “HCT116 cell viability compared to a control” value (HCT116 cells) is on record?
The value was “affects HCT116 cell viability”.

What about the cell viability (CHLA06 cells [1]; 429-SMARCB1 and tazemetostat treatments) of the same molecule?
The cell viability was “reduced cell viability”.

And the caspase activity (CHLA06 cells [3])?
Its caspase activity is “increased caspase activity”.

What about the “Myc transcription compared to the control” value (Myc transcription; 5 nM) of the same molecule?
Its value is “significantly affects Myc transcription”.

What about the “Myc transcription compared to the control” value (Myc transcription; 50 nM) of the same molecule?
Its value is “significantly affects Myc transcription”.

And the “inhibition of Myc transcription” value (Myc transcription)?
The value was “inhibits Myc transcription”.

What about the internalization (CHLA06 cells [4]; CHLA06 cells) of the same molecule?
Its internalization is “internalized”.

What about the co-localization with histones (CHLA06 cells [4]) of the same molecule?
The co-localization with histones was “co-localizes with histones”.

And the “apoptotic effect in combination with tazemetostat” value (ATRT cell lines)?
The value was “synergistic apoptotic effect”.

B2: DFYGCLLDLSLGVPSLGWRRRCITAWLPSSIPKKKRKVDGQKLRDAFTWNMNEKLMTPEMFSEILCDDLD (peptide)
chain: B1 chain
modifications: not fully specified
With B2 as the molecule, how does the “HCT116 cell viability compared to a control” value (HCT116 cells) read?
The value was “inhibited”.

What about the “CHLA06 cell viability compared to 429 control” value (CHLA06 cells [1]; 50 ug) of the same molecule?
The value was “significantly affected CHLA06 cell viability”.

What about the caspase activity (CHLA06 cells [3]) of the same molecule?
The caspase activity was “significantly increased caspase activity”.

And the “inhibition of Myc transcription” value (Myc transcription)?
The value was “inhibited”.

And the caspase activity (CHLA02 cells)?
Its caspase activity is “significantly increased caspase activity”.
